Assay results: paper PMC6637906
pKd: −log10 of the molar value.

System: GST-TfmR (Xanthomonas citri subsp. citri 306)
Assay: EMSA
Settings: LightShift Chemiluminescent EMSA Kit per manufacturer; 1-2 ng biotin DNA, 20 pmol GST-TfmR, 15 min (Fig. 6); buffer, salt, pH and temperature not stated

pmhpC/fadE promoter gave a pKd of 7.06.
